Earlier results, collected in PMC6557900.

Target: GHR pY487 pY487 region (Homo sapiens) (UniProt P10912)
Sequence (P10912 whole entry, looked up): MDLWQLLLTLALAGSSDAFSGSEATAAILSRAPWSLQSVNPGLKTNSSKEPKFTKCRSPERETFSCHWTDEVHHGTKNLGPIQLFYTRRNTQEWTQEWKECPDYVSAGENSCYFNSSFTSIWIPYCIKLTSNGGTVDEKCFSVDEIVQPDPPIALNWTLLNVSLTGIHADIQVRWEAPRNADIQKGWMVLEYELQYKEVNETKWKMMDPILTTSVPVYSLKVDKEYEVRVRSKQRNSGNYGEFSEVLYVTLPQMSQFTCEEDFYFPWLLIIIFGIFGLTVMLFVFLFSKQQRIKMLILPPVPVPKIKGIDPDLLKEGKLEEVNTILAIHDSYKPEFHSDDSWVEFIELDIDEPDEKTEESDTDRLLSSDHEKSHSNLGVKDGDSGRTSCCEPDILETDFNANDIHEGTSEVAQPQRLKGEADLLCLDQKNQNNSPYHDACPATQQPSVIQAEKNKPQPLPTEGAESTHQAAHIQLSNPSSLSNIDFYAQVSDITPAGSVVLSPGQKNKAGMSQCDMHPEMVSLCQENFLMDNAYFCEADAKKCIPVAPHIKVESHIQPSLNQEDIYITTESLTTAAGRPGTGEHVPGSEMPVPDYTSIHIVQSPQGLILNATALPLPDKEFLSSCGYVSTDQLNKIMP

SOCS2, sequence (O14508 whole entry): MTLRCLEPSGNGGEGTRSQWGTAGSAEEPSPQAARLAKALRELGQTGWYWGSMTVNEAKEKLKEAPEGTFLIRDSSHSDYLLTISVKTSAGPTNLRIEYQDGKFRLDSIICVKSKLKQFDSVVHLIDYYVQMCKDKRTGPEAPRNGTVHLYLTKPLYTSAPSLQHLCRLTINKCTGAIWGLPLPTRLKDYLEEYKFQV

## SOCS2 (from UniProt O14508)
  Kd: 11.3 µM
